Assay results reported in PMC3897701, “Human and Mouse CD137 Have Predominantly Different Binding CRDs to Their Respective Ligands” (PLoS ONE, 2014).

Molecular target: T1, hCD137L-mFc (human CD137L extracellular domain and mouse IgG-Fc fusion protein) (human, UniProt P41273 50-254)
T1 construct: human CD137 ligand (4-1BBL), extracellular domain; a silent g to c change at base 405 destroys an AgeI site without any amino acid changed; also called hL; hL-mFc; source: COS-7, transfected, purified (rProtein A Sepharose)
T1 sequence (P41273 50-254): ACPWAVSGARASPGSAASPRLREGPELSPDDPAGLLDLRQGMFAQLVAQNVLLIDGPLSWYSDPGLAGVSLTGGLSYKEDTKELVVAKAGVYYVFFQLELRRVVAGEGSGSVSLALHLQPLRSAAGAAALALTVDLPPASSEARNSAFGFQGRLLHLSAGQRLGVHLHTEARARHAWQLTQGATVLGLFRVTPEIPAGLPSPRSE
Test: ELISA; purified hCD137L-mFc coated at 1 µg/ml; expression supernatants of human or mouse CD137-hFc fragments added; goat anti-human IgG-HRP; positive if P/N>2.1
Details: one partner purified

binding relative to that of human CD137: ~30%
B1: mouse CD137 extracellular domain with hFc tail (mE-hFc) (Fc fusion, UniProt P20334 24-185, looked up)
chain: VQNSCDNCQPGTFCRKYNPVCKSCPPSTFSSIGGQPNCNICRVCAGYFRFKKFCSSTHNAECECIEGFHCLGPQCTRCEKDCRPGQELTKQGCKTCSLGTFNDQNGTGVCRPWTNCSLDGRSVLKTGTTEKDVVCGPPVVSFSPSTTISVTPEGGPGGHSLQ
notes: signal peptide in the construct; mouse CD137 (4-1BB), entire extracellular region with its own leader (1-23 aa), CRDI-IV and the hinge-like region (STP), residues 1-185; Runs as a dimer on SDS-PAGE without 2-ME; also called mE-Fc; mCD137-hFc; source: COS-7, transfected (DEAE dextran); expression supernatant, and purified (rProtein A Sepharose); not shown: Fc (human IgG1 hinge-CH2-CH3), …
